In this data set the target is T1, AgrAC (AgrA C-terminal LytTR domain) (Staphylococcus aureus, UniProt P0A0I7 137-238).
T1 sequence: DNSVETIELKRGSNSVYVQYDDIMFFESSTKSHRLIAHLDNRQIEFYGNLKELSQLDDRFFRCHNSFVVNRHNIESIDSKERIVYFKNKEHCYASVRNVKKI
Kind of data set: EMSA. For orientation: A gel shift assay detects complexes by their altered migration in electrophoresis.

The text below walks through data of paper PMC3525768.

B1: 19-bp AgrA target DNA duplex (dsDNA)
DNA 1: ATTTAACAGTTAAGTATTT
DNA 2: AAATACTTAACTGTTAAAT
For B1, the binding result is “binds”.
